Measured values from US20260241035A1, “FUNCTIONAL NUCLEIC ACID MOLECULE AND METHOD” (THE UNIVERSITY COURT OF THE UNIVERSITY OF EDINBURGH, priority 2022, published 2026).

Key:
GSC7 cells [1] = experiment: in vitro; format: cell-based, human; conditions: ganciclovir alone, no virus
Procedure: (§2) On the day of cell seeding, cells were detached using above described method. Cells were counted using hemocytometer and seeded into either 96-(1,000 cells per well in 50 μL), 24-(30,000 cells per well in 500 μL) or 6-well (60,000 cells per well in 2 mL) Corning plate and placed into incubator at 37° C./5% CO2. The next day, AAV virus stocks were thawed at room temperature and an appropriate amount of virus stock was added to required amount of culture media to achieve final multiplicity of infection (MOI) of 5×10^5. Culture media containing viral particles was added to cells without replacement of existing media. Cells were returned to 37° C./5% CO2.
(§3) Lyophilised GCV was diluted in DMSO to achieve 100 mM stock concentration. GCV stocks were aliquoted and were stored at −20° C. for no longer than 1 month. […]
(§4) To track cell proliferation and morphological changes during treatments, cells were monitored using the Incucyte live-cell imaging system. […]
(§5) On the day of assay culture media was replaced with 0.3 mg/mL MTT solution (diluted in cell line-appropriate culture media). […] Before reading the plate, each well was visually inspected to make sure that all (formazan) crystals were dissolved. Plate was read with plate reader at 560 nm absorbance.

in vitro = format: cell-based, human; conditions: human; ganciclovir alone, GSC7; read-out: viability (MTT)
Procedure: as §2, §3, §4, §5

GSC328 cells = experiment: Flow cytometry of mNGreen reporter in GSC328; format: cell-based, human
Procedure: (§1) Cells were seeded at the required density. The following day the transfection was carried out. For this the Plus reagent and Lipofectamine LTX (Life Technologies, 15338030) were each diluted in half the volume of Opti-MEM I Reduced-Serum Medium (further referred to as Optimem) (Life Technologies, 31985062). Following this step, the Plus reagent/Optimem premix was added to all DNA samples followed by the Lipofectamine LTX/Optimem premix. The transfection mix was incubated for 5 min at room temperature and then carefully dropped on the cells. Generally, no media change was carried out. Cells were analysed two days following transfection.
For flow cytometry, cells were detached, pelleted and resuspended in an appropriate volume of flow cytometry buffer (1% BSA in PBS, v/v). Cells were stained with Draq7 (Abcam, ab109202, f.c. 0.1 μM) as a live/dead stain and analysed using the BD LSRFortessa cell analyser (4 lasers, BD Bioscience). Analysis of flow cytometry data was carried out in the FlowJo Analysis software (FlowJo, version 10.6.2).

GSC7 cells [2] = experiment: Nano-Glo Dual-Luciferase Reporter (Nanoglo DLR) assay of enhancer activity, fold change to mCMV; format: cell-based, human; conditions: for activity compared with CMV, Nanoglo DLR assay: GSC7
In short: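 160 bp enhancer fragments in NanoLuc reporter plasmids were co-transfected 1:10 with PGK-firefly luciferase into GSC7 cells using Lipofectamine LTX/Plus and read two days later. NanoLuc signal was normalised to firefly, then expressed as fold change to the empty mCMV vector.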

GSC7 cells [3] = experiment: Flow cytometry of mNGreen reporter in GSC7; format: cell-based, human
Procedure: as §1, with “For this the Plus reagent and Lipofectamine LTX (Life Technologies, 15338030) were each diluted in half the volume of Opti-MEM I Reduced-Serum Medium (further referred to as Optimem) (Life Technologies, 31985062).” left out
For flow cytometry, cells were detached, pelleted and resuspended in an appropriate volume of flow cytometry buffer (1% BSA in PBS, v/v). Cells were stained with Draq7 (Abcam, ab109202, f.c. 0.1 μM) as a live/dead stain and analysed using the BD LSRFortessa cell analyser (4 lasers, BD Bioscience).

SOX9 = target: T1, SOX9 (Homo sapiens, UniProt P48436); experiment: Biotinylated enhancer pull down from nuclear extract, SOX9 detection; format: binding; conditions: random DNA 599 as negative control
T1 construct: These dsDNA fragments were incubated with nuclear extract from GSC7 and GSC328; endogenous in cells; host or cells: nuclear extract of GSC7 and/or GSC328 (patient-derived glioblastoma stem cell lines)
T1 sequence (P48436 1-509): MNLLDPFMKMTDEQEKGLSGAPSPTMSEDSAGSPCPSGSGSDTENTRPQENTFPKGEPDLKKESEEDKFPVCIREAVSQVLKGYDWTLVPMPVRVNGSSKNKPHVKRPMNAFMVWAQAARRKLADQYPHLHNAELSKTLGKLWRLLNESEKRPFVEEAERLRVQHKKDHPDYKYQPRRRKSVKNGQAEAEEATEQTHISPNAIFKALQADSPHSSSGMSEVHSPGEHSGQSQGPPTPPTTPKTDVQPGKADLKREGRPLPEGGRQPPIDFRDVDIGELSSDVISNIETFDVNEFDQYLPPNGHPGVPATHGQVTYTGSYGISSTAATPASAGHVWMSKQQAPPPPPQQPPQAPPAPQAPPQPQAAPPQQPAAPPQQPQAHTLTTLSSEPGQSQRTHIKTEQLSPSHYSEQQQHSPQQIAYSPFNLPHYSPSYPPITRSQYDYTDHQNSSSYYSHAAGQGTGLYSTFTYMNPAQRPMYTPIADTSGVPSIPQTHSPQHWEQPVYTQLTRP
Procedure: The oligo was PCR-amplified using biotinylated primers. The PCR product was then SPRI purified to remove biotinylated primer dimers. These dsDNA fragments were incubated with nuclear extract from GSC7 and GSC328. They were then bound to streptavidin magnetic beads, washed three times and the frozen beads were sent for mass spectrometry analysis.
All the buffers were prepared the day before, passed through a 22 μm filter (except the dialysis buffer) and left at 4° C. overnight. DTT and protease inhibitors were added just before use. […] The cell suspension was transferred to a glass Dounce homogenizer and dounced 40 times on ice. […] Dialysis buffer was changed (500 ml) and the dialysis was continued overnight at 4° C. The extract was collected in an 1.5 ml tube and spun at maximum speed for 15 min at 4° C. […] 100 μg aliquots were flash frozen in liquid nitrogen and stored at −80° C.
Enhancers were amplified with 5′ biotinylated primers (Table 5) using PrimeStar Max (Takara) according to the manufacturer's instructions.
Streptavidin Magnetic Bead (NEB, S1420S) were used according to the manufacturer's instructions. […]
Next, we aimed to confirm that indeed SOX2 and SOX9 are binding to the enhancer and the SOX dimer motif. […] To filter for transcription factors a list of all transcription factors was obtained from UniProt and overlapped with the detected proteins in both cell lines.

Nc1nc(O)c2ncn(COC(CO)CO)c2n1 [ganciclovir]
cell confluence (GSC7 cells [1]): No significant negative effect on cell confluence
viability at 200 μM (in vitro): 89%

B1: SSE-6: synthetic super-enhancer ID3548_ID3146_ID4310_ID4428, SEQ ID NO: 69 (nucleic acid)
DNA: TCCAAACACTCCCCTGCAACAGATGTACACACAGAGCCCATTGTTTTCTCTAGAAATGTAAACTGCACGTCACAGTTACTCCATACACACCACAAACAGACTCCCTTTGTTCTCAGGATATGTGTTGACACAAGAATATGTCATCCTCTCAGCTCCAGACTGAAAGAGATGGGTGTGTGGGAGTGGGGGAAGCTGAGCTCCAGGCAGACAGCACAGAGCCGCCTTGTCCAACCCAGCCAGGTGCCATGGCAACCAACAAAGGCCCCATTGTCCCGTGTCTGCTGGGCCTTCCTGAGGCTCTGGGGTCAGAGTCCCGGTTTTGTCCTGCCTTTGAGAACACTGGAAGGGCACTGAAGGCTGACCAGCATGCACCTCACCCCACCTCCTCTCTGTCTCATCCTCAGCCATCTAAGCGGGAGACTCATCAGGCTTAAATTCTCATTCTTATCCAAGATTCTTCTGCTTCAAATGAGTCTAAATGGAGATCCTCCCATAAAGGGAGTTCTGTTTGGGCTTCCCTTGGAAGTCCATTGAAAGCGTTTCACATTTCAATGCTTCTTTACATTCTCCTCTAGAATGAATCTGGAAGGGCCATTTCATTCCAGCCCTATCAGATTTACTACTTCCTCCTGT
mean fluorescence intensity (MFI) compared with CMV (GSC328 cells): clearly less intense than CMV

B2: SSE-2: synthetic super-enhancer ID0109_ID4328_ID0876_ID2339, SEQ ID NO: 65 (nucleic acid)
DNA: GAAATTGGATCCTGAGGAGAATGTCACCACCTCTTTGACAATAACTAGCTTTCAGAGCTGAACACAGTGAATCTGGATACTGTGTATATGTTTAAATGAGTTAGGAAATGACATCACATTATTTATTTCTTCTTTTGTGACTTAGTAAATTGACTTGGCCTACAATCTATTCTCCATAGTCATCAGAGTTTCTTTAAAGGCACGGTTCAGACAATGGCACCCTCTGTTCCAAACCCTCCAGGGCTTCCTATTTCACTTAGCATAAAAACCAAAGTCCTCACAATGACCGACAAGTCTTCACACAATGTGCCCCTTCATTGGAGCAGGCAGTCATTTGGTTCCCTTCTCTGAATGCATTGGCTCTGATCCACGGCGCCTCAGGAAGTGAAAGGGAGCAGGCAGTGAGGCCAAGCCATGAATGTTGGGCCCTTTTCTTAGAAAACAAAGGGTTCACTTTAGGCTAGGAGGAAACATCCGGGGGTCGGCGGAACTGAGTCTCCTTTGTGGAGCCCCTCATTTGCATGATAAACCCCGGGGACAAAGTGTGTTCTTGTTACTTGGACTGTTTCTTGGAAACTGCTGCTACCTGGAGCGAGTGAACACAGGGCAAGTATTCTCGCCCACAGCAACGTGTCATTGA
activity compared with CMV, Nanoglo DLR assay (GSC7 cells [2]): higher than CMV
expression level compared with positive control CMV, flow cytometry (GSC7 cells [3]): higher than CMV
fluorescence intensity compared with CMV (GSC7 cells [3]): higher intensity than CMV

B3: ID2904: enhancer fragment, SEQ ID NO: 5 (nucleic acid)
DNA: TGCATGTTCTTGGGAAAAAGTGGTATTTAATGAAGGCGCTTTGAGCTGAATCAAAGAGCCTCATTCTTCTGAAAGTCCTTCTTCCTAGTCTCTGCATCCGGCTCCTATCAAAGGAAATCCACAGCTTTGGCTTTTCGTTGCTGTTGTCATGGAAATCGTT
SOX9 interaction (SOX9): selectively interacts
Fold change (Median) (GSC7 cells [2]; expression fold change of the individual enhancer compared to mCMV): 251.6 fold

B4: SSE-5: synthetic super-enhancer ID2706_ID3547_ID3548_ID3146, SEQ ID NO: 68 (nucleic acid)
DNA: CCAATGCCAAAGCAGTTTACATTTTACAGATGCCATGGCAACCGTCAGGAAGTTACCCTGTATGGTCTAAGAGGGGGAGGAACCCTCAGTTCCGGGAATTGCCCGCCCCTTTCCCGGAAACTCATGAATAATCCACCCCGTTCCCCCTTAACAAAAGCCACCTCCTCCCTCCTGAAAGGCACCATTGGTCACCAAAACAAGTCCCCTTTGTCCTCCACCGCAGCTGGAGCCTGGGCCTTCCATCTCCTGGGGGCCAATAAAACCCCAGATCAGCCAATCCTCCCTCCCTGGCTCTGTCATCCAAACACTCCCCTGCAACAGATGTACACACAGAGCCCATTGTTTTCTCTAGAAATGTAAACTGCACGTCACAGTTACTCCATACACACCACAAACAGACTCCCTTTGTTCTCAGGATATGTGTTGACACAAGAATATGTCATCCTCTCAGCTCCAGACTGAAAGAGATGGGTGTGTGGGAGTGGGGGAAGCTGAGCTCCAGGCAGACAGCACAGAGCCGCCTTGTCCAACCCAGCCAGGTGCCATGGCAACCAACAAAGGCCCCATTGTCCCGTGTCTGCTGGGCCTTCCTGAGGCTCTGGGGTCAGAGTCCCGGTT
activity compared with CMV, Nanoglo DLR assay (GSC7 cells [2]): higher than CMV
expression level compared with positive control CMV, flow cytometry (GSC7 cells [3]): higher than CMV
fluorescence intensity compared with CMV (GSC7 cells [3]): higher intensity than CMV

B5: SSE-3: synthetic super-enhancer ID0876_ID2339_ID1737_ID0663, SEQ ID NO: 66 (nucleic acid)
DNA: GAGCAGGCAGTCATTTGGTTCCCTTCTCTGAATGCATTGGCTCTGATCCACGGCGCCTCAGGAAGTGAAAGGGAGCAGGCAGTGAGGCCAAGCCATGAATGTTGGGCCCTTTTCTTAGAAAACAAAGGGTTCACTTTAGGCTAGGAGGAAACATCCGGGGGTCGGCGGAACTGAGTCTCCTTTGTGGAGCCCCTCATTTGCATGATAAACCCCGGGGACAAAGTGTGTTCTTGTTACTTGGACTGTTTCTTGGAAACTGCTGCTACCTGGAGCGAGTGAACACAGGGCAAGTATTCTCGCCCACAGCAACGTGTCATTGACAACGTTTTTGGCAGATGCAGCTCTTTCTGAACAGTAAGTCATTGTTGAGTGACATGAATAGGACGAGAGCTACAGAAAATGAAGGTTTCAAAAGATTGTCTAAAACAAAAGTCCTTTCAGTCCCGTATTCAGAGTTATAAATTCCGATTAGCCAAGGAAGCTCTGAGTCTAAATACCAGCAAAGCTCAGCCCCTGCAAGTGGGGACGAATTATTTGAAAGGTCATCCTAGAGACACTGAACAAAGGGCCTCTAGCAGCT
activity compared with CMV, Nanoglo DLR assay (GSC7 cells [2]): higher than CMV
expression level compared with positive control CMV, flow cytometry (GSC7 cells [3]): higher than CMV
